Data on one substance can be found in article PMC2074667.

Assay [1] deals with high-affinity cell-surface IFN-alpha receptor of human lung carcinoma cells (human (endogenous in PC9 and other lung carcinoma cell lines)). The experiment in a line: radioligand binding; several lung carcinoma cell lines (lines not named) in suspension, room temperature, 2 h, 0.1-4 nM [125I]IFN-a; non-specific binding measured with 100-fold excess of unlabelled IFN-a; Scatchard analysis.

The target is the same in assay [2]. The experiment in a line: radioligand binding; PC9 cells in suspension (200 ul of 5 x 10^6 cells/ml) incubated at room temperature for 2 h with 0.1-4 nM [125I]IFN-a; non-specific binding measured with 100-fold excess of unlabelled IFN-a; Scatchard analysis.

One may read the Kd as a measure of binding affinity in units of concentration. Low readings indicate tighter binding, high ones weaker binding.

For “Pure recombinant human IFN-alpha, labelled with 125I (from UniProt P01563 24-188) (ligand)”, the Kd is 0.02 to 0.1 nM in assay [1] and 0.042 nM in assay [2].
